# PMC10628450 (2023)
# B1: Anti-NKp46 IgG (antibody)
# chain 1: QVQLVQSGAEVKKPGSSVKVSCKASGYTFSDYVINWVRQAPGQGLEWMGEIYPGSGTNYYNEKFKAKATITADKSTSTAYMELSSLRSEDTAVYYCARRGRYGLYAMDYWGQGTTVTVSS
# chain 2: DIQMTQSPSSLSASVGDRVTITCRASQDISNYLNWYQQKPGKAPKLLIYYTSRLHSGVPSRFSGSGSGTDFTFTISSLQPEDIATYFCQQGNTRPWTFGGGTKVEIK
# modifications: In-house soluble FcRn-His6, tag omitted; ectodomain limits from UniProt topology; beta-2-microglobulin is not named in the paper and is added by convention as the obligate light chain; check residues are not from the paper; N-glycosylated
# Tests used:
# FcRn-His6 [1] = molecular target: T1, FcRn-His6 (UniProt P55899 24-365); experiment: BLI; pH 6
# FcRn-His6 [2] = molecular target: T1, FcRn-His6; experiment: BLI; pH 6; remark: listed apart in the source
# T1 sequence (P55899 24-297, chain 1 of 2): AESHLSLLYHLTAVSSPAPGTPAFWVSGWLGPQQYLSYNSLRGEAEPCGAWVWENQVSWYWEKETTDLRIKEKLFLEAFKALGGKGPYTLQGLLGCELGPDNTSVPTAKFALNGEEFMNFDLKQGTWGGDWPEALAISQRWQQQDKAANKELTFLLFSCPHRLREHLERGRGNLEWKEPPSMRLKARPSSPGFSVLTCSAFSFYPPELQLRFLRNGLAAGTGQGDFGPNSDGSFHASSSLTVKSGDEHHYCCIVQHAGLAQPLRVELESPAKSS
# T1 sequence (chain, as listed by the source, chain 2 of 2): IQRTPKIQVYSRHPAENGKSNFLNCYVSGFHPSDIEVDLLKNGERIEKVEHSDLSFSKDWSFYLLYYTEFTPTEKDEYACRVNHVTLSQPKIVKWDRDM
binder,measurement,setting,value
B1,koff,FcRn-His6 [1],0.0685 s⁻¹
same,Kd,FcRn-His6 [2],361 nM
